Legend:
p13^suc1 -agarose = molecular target: T1, p13^suc1 -agarose (UniProt P08463); assay: U937 lysate depleted with p13^suc1 -agarose or GST beads, supernatant precipitated with GST-p60Δ8 or GST-p60Δ15, kinase assay with Rb^110
T1 sequence: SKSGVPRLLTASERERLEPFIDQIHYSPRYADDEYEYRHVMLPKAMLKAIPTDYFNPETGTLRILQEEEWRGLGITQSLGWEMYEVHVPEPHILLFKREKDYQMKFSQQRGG

[1] = molecular target: p60-Tumor Necrosis Factor Receptor Associated Kinase (p60TRAK); assay: U937 lysate depleted with p13^suc1 -agarose or GST beads, supernatant precipitated with GST-p60Δ15, kinase assay with histone H1
[2] = molecular target: GST-p60Δ5 (Homo sapiens (Human)) (UniProt P19438)
[3] = molecular target: GST-p60Δ4 (Homo sapiens (Human)) (UniProt P19438)
[4] = molecular target: p60-Tumor Necrosis Factor Receptor Associated Kinase (p60TRAK)

Question: How did the “reduction of Rb^110 phosphorylation by p60TRAK after depletion” value (p13^suc1 -agarose) turn out when “p60-Tumor Necrosis Factor Receptor Associated Kinase (p60TRAK)” was run?
Answer: phosphorylation of the retinoblastoma protein (Rb^110) by p60TRAK after depletion with p13^suc1 -agarose was reduced by greater than 60%

Question: Which depletion of p60TRAK activity [1] does the source give for p13^suc1 -agarose (from UniProt P08463) here?
Answer: 50%

Question: For “p60-Tumor Necrosis Factor Receptor Associated Kinase (p60TRAK) (enzyme)”, which phosphorylation in an in vitro kinase assay [2] is on record?
Answer: 50%

Question: What about the phosphorylation in an in vitro kinase assay [3] of the same substance?
Answer: 50%

Question: p49^WEE1 (from UniProt P30291) (enzyme) was tested. Which histone kinase activity of p60TRAK [4] did it give?
Answer: > 70%

Source: patent US5856161
